{"source": "paper doi:10.1101/2023.07.27.550818", "about": "(bioRxiv, 2023)", "proteins": {"B1": {"name": "PcaR (natural protein, P. putida, UniProt Q52154 1-291, looked up)", "chain": "MSDETLVNDPVNPEPARPASAAMAPPIVASPAKRIQAFTGDPDFMTSLARGLAVIQAFQERKRHLTIAQISHRTEIPRAAVRRCLHTLIKLGYATSDGRTYSLLPKVLTLGHAYLSSTPLAISAQPYLDRISDQLHEAANMATLEGDDILYIARSATVERLISVDLSVGGRLPAYCTSMGRILLAAMDDTSLREYLGRADLKARTSRTLHDPESLFACIQQVRAQGWCVVDQELEQGLRSIAVPIYDASGQVLAALNVSTHVGRVTRSELEQRFLPILLAASRDLCHQLFG"}}, "biological_target": "the molecule itself", "assay": "crystal structure", "data": [{"protein": "B1", "values": [{"measurement": "binding result", "result": "binds"}]}]}
